Laboratory results taken from US10709761B2, “Methods and compositions for preventing or treating cancer” (UNIVERSITY OF UTAH RESEARCH FOUNDATION, priority 2015, dated 2020).

Tests used:
human fibroblasts = assay: Caspase 3/7 cleavage after doxorubicin, human fibroblasts; assay type: cell-based; conditions: 10 μM and 30 μM doxorubicin
elephant fibroblasts = assay: Caspase 3/7 cleavage after doxorubicin, elephant fibroblasts; assay type: cell-based, African elephant; conditions: 10 μM and 30 μM doxorubicin
[1] = test system: African elephant lymphocytes; assay: Annexin V / propidium iodide apoptosis after doxorubicin, elephant lymphocytes; assay type: cell-based; conditions: 5 μM doxorubicin, 18 and 24 hours
Protocol: Ionizing radiation (0.5, 2, 5, 6, 10, and 20 Gy) or doxorubicin (0.005-30 μM) were used to induce DNA damage in the cultured primary PBLs, which were then evaluated for signs of apoptosis, DNA repair efficiency, and cell cycle arrest. Apoptosis was evaluated by measuring the number of cells that stained for Annexin V (AV) and propidium iodide (PI); cells were categorized as being in late apoptosis if they were AV+PI+, and in early apoptosis if they were AV+PI−. Apoptosis was also measured either using APO-TOX GLO™ (Promega, Madison, Wis.) or CASPASE-GLO® 3/7 Assay (Promega) and […]-GLO® (Promega). The results were normalized to cell viability either using counts from the MULTI-TOX-FLUOR™ assay (Promega) included with APO-TOX GLO™, or using […]-GLO® when caspase activity was measured. Statistically significant differences in apoptosis were calculated in […] PRISM®.

U-2OS cells [2] = assay: U-2OS cell viability after doxycycline induction; assay type: cell-based, human; conditions: 72 hours after induction with doxycycline
Protocol: U-2OS cells were also transfected with EP53^anc (SEQ ID NO: 2) and human TP53, and the cell viability after induction with doxycycline was observed after 72 hours.

U-2OS cells [3] = assay: Caspase activity / apoptosis in U-2OS cells expressing EP53 genes; assay type: cell-based, human; conditions: compared to empty vector
Protocol: U-2OS cells were transfected with EP53^r5 (SEQ ID NO: 12) or EP53 ancestral (EP53^anc) (SEQ ID NO: 2), and then treated with doxycycline to induce EP53^r expression. The cells were then treated with doxorubicin to damage the DNA.
(§1) U-2OS cells were also transduced with EP53^anc (SEQ ID NO: 2). These cells were then induced to express EP53^anc (SEQ ID NO: 3), and treated with doxorubicin to trigger DNA damage.

[4] = test system: p53 target genes, p21 and MDM2; assay: Western blot of p53 pathway proteins in U-2OS cells expressing EP53^anc; assay type: cell-based, human
Protocol: For tetracycline inducible cells, the cells were treated with doxycycline for 24-48 hours prior to treatment with MG132 or doxorubicin. After the induction of DNA damage, the cells were harvested and pelleted. The cell pellets were frozen, and then lysed in cell lysis buffer containing phosphatase and protease inhibitors. The cell lysates were run on SDS-PAGE protein gels, and then transferred to PVDF membranes (western blots). The membranes were blocked, and then probed with primary antibodies to determine the p53 protein levels. The blots were probed with secondary HRP-conjugated antibodies, and the protein levels were detected using a substrate and a chemiluminometer. GAPDH was used as a loading control for each western blot. The blots were also probed for phosphorylated EP53^r at the serine-15 residue (phospho-EP53^r). DNA damage induces the phosphorylation of p53, which reduces the interaction of this protein with its negative regulator, mouse double minute 2 (MDM2) (Milczarek et al. Life Sci; 60: 1-11 (1997)).
as §1

U-2OS cells [5] = assay: U-2OS caspase activity after doxycycline induction; assay type: cell-based, human; conditions: after induction with doxycycline
[6] = U-2OS induced to express, doxorubicin-treated

Molecule	caspase 3/7 cleavage (human fibroblasts)	caspase 3/7 cleavage (elephant fibroblasts)	early apoptosis (AV+PI−) [1]	late apoptosis (AV+PI+) [1]	cell viability (U-2OS cells [2])	increase in caspase activity (U-2OS cells [3]; [6])	apoptosis (U-2OS cells [3]; U-2OS, absence of doxorubicin treatment)	endogenous human p53 expression ([4]; U-2OS cells expressing EP53^anc)	p53 target genes, p21 and MDM2 (western blot) [4, 6]	caspase activity (U-2OS cells [5])
COc1cccc2c1C(=O)c1c(O)c3c(c(O)c1C2=O)C[C@@](O)(C(=O)CO)C[C@@H]3O[C@H]1C[C@H](N)[C@H](O)[C@H](C)O1 [doxorubicin]	2.24 fold increase	9.1 fold increase	significant increase	significant increase						
EP53^anc: ancestral elephant TP53 gene (SEQ ID NO: 2) encoding elephant p53 protein (SEQ ID NO: 3), expressed from vector in cells (protein, listed as Loxodonta africana) MEEPQSDLSTELPLSQETFSYLWELLPENPVLSPTLPPAVEVMDDLLLSEDTANWLESQVEAQGMSTTPAPATPTPVAPAPATSWTLSSSVPSQKTYPGTYGFRLGFLHSGTAKSVTCTYSPDLNKLFCQLAKTCPVQLWVASPPPPGTRVRTMAIYKKSEHMTEVVKRCPHHERCSDSSDGLAPPQHLIRVEGNLRAEYLEDSITLRHSVVVPYEPPEVGSDCTTIHFNFMCNSSCMGGMNRRPILTIITLEDSSGNLLGRNSFEVRICACPGRDRRTEEENFHKKGEPCPEPPPPGRSTKRALPTNTSSSTQPKKKPLDEEYFTLQIRGRERFKMFLELNEALELKDAQAGKEPEGSRAHSSPSKSKKGQSTSRHKKPMFKREGPDSD					35.6%	20 fold	significant apoptosis	less	increase	14.22%
